Article PMC4141209 (FEBS Open Bio, 2014)

Target: the molecule itself
Assay: SEC

B1: TlLhpH (trans-3-hydroxy-L-proline dehydratase from Thermococcus litoralis DSM 5473) (enzyme, UniProt H3ZMH8 1-348, looked up)
chain: MFKKLENLEKWEPPKDWMVIKTLDTHTAGEPLRIILSGFPEIPGKTILEKRRYLMENLDHLRKALMWEPRGHADMYGAIITEPVSEEADFGVIFMHNEGYSTMCGHATIALGKVAVECGLVEAKEPITEIKMDSPAGLIKIYVKVRDGKVEKVYFHNVPSFVLFKDETINVPGIGEVKYDLAYGGAFYAFVNAEEIGLKCTPEYYRQLIDVGMKIKRAIMSEKEIRHPFEEDLSFLYGTIFIGEPEDENSHSRHVCIFADGEVDRSPTGTGVSARLAILYEKGEIDIGEEITIESIIGTKFTGKVVEETRYGLYRAIIPEVGGNAYIVAKNTFLIDPQDPLKYGFFLR
stoichiometry N: 2
